Data taken from IntAct's records for PubMed 34400613.

B1: Ras GTPase-activating protein-binding protein 2 (Homo sapiens), Q9UN86 (parent)
chain: MVMEKPSPLLVGREFVRQYYTLLNKAPEYLHRFYGRNSSYVHGGVDASGKPQEAVYGQNDIHHKVLSLNFSECHTKIRHVDAHATLSDGVVVQVMGLLSNSGQPERKFMQTFVLAPEGSVPNKFYVHNDMFRYEDEVFGDSEPELDEESEDEVEEEQEERQPSPEPVQENANSGYYEAHPVTNGIEEPLEESSHEPEPEPESETKTEELKPQVEEKNLEELEEKSTTPPPAEPVSLPQEPPKAFSWASVTSKNLPPSGTVSSSGIPPHVKAPVSQPRVEAKPEVQSQPPRVREQRPRERPGFPPRGPRPGRGDMEQNDSDNRRIIRYPDSHQLFVGNLPHDIDENELKEFFMSFGNVVELRINTKGVGGKLPNFGFVVFDDSEPVQRILIAKPIMFRGEVRLNVEEKKTRAARERETRGGGDDRRDIRRNDRGPGGPRGIVGGGMMRDRDGRGPPPRGGMAQKLGSGRGTGQMEGRFTGQRR

Variants of: B1
Settings: with ncap_sars2 N

| Variant | effect of a mutation on the interaction |
| --- | --- |
| F15A;F33A;F124A | disrupting interaction strength |
| F15A | decreasing interaction strength |
| F15A;F33A | decreasing interaction strength |
